Measured values reported in paper PMC6036645.

Target: Leptospira interrogans thermolysin encoded by LIC13322, prothermolysin fragment PepSY-M4 (74 kDa) (Leptospira interrogans)
Assay: SEC

stoichiometry N: 2
Substance: Leptospira interrogans thermolysin encoded by LIC13322, prothermolysin fragment PepSY-M4 (74 kDa) (enzyme)
